Key:
[1] = target: p53 wild-type (Homo sapiens) (UniProt P04637); assay: pulldown; conditions: 100 mM NaCl; positive control
[2] = test system: luciferase; assay: pulldown; conditions: 100 mM NaCl; negative control
[3] = target: RB18A D9 product (aa 436-1566) (Homo sapiens) (UniProt Q15648); assay: pulldown; conditions: 100 mM NaCl
[4] = target: GST-RB18A-N2 (Homo sapiens) (UniProt Q15648); conditions: strand annealing initial rate, 20 nM protein, 37 C
[5] = test system: p53 wild-type His-tag (Homo sapiens); conditions: strand annealing initial rate, 20 nM protein, 37 C

GST-RB18A-N2 (Homo sapiens), sequence (Q15648 1249-1581): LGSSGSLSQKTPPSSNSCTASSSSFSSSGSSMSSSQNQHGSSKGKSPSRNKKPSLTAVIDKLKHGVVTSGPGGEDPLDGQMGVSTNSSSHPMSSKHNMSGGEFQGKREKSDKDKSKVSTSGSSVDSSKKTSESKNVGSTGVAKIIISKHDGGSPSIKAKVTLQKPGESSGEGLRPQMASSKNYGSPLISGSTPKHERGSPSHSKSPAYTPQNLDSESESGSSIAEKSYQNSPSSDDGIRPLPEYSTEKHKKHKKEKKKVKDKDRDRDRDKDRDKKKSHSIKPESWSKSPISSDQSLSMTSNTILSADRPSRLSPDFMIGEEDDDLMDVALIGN
p53 wild-type (Homo sapiens), sequence (P04637 whole entry): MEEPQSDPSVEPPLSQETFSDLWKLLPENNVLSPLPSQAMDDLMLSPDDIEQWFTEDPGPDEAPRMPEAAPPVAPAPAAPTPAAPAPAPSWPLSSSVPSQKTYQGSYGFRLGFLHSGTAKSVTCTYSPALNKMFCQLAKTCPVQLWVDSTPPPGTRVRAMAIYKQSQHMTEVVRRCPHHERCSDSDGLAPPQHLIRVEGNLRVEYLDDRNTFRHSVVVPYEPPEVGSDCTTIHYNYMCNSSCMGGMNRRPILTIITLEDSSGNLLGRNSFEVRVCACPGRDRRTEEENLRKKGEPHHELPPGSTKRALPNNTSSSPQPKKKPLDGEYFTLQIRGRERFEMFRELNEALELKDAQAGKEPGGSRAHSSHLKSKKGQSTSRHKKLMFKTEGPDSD
RB18A D9 product (aa 436-1566) (Homo sapiens), sequence (Q15648 other isoform, or with tags, fused parts or gaps): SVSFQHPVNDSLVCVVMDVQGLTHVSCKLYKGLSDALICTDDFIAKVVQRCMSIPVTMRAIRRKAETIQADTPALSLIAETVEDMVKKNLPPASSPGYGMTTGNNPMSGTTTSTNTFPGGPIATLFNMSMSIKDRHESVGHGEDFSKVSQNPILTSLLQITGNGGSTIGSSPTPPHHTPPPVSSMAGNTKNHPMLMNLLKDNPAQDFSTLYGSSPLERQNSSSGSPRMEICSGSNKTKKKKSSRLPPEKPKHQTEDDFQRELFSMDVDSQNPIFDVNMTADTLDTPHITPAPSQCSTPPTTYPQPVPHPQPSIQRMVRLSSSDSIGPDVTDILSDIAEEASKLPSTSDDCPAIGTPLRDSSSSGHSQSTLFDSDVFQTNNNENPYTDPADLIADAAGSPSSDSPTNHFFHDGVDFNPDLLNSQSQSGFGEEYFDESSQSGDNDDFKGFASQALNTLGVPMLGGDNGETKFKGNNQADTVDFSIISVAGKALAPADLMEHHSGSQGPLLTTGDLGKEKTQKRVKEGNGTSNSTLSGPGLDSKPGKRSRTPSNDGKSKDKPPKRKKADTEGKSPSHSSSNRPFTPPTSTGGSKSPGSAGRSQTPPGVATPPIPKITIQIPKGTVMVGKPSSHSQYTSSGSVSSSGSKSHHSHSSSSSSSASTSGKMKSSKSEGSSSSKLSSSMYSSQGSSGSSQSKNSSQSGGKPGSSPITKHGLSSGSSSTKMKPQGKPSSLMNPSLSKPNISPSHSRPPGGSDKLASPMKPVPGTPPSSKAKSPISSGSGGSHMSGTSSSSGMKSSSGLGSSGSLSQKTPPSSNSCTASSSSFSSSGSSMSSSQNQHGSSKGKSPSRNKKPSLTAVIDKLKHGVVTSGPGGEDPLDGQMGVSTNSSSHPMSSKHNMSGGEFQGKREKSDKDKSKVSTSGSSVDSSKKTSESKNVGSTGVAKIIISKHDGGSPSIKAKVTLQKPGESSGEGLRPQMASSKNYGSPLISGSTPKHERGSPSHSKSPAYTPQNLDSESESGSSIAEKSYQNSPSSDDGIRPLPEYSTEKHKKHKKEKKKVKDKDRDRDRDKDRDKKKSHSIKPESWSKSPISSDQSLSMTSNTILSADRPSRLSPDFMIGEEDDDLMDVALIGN

## double-stranded DNA-cellulose
[1]
  binding (% of input retained): 20
[2]
  binding (% of input retained): < 0.1
[3]
  binding (% of input retained): 20

## phiX174 HaeIII 194 bp fragment, heat denatured
[4]
  activity: 14 %/min
[5]
  activity: 5.9 %/min

Source: patent US20040052794
